Experimental data as given in PMC5291488, “3,4-Dihydroxyphenylacetate 2,3-dioxygenase from Pseudomonas aeruginosa: An Fe(II)-containing enzyme with fast turnover” (PLoS ONE, 2017).

Substrate: O=C(O)Cc1ccc(O)c(O)c1
Experiment: purified protein
Format: biochemical, Pseudomonas aeruginosa
Settings: air-saturated (O2 ~260 μM), 50 mM sodium phosphate pH 7.5, 25 °C, Fe(II)/DTT-activated enzyme, stock kept with 0.5 mM ascorbic acid as preservative

B1: PaDHPAO (3,4-dihydroxyphenylacetate 2,3-dioxygenase) (Pseudomonas aeruginosa PAO1) (protein)
chain: MGKVALAAKITHVPSLYLSELPGPRHGCRQPAIDGHREIGRRCRELGVDTIVVFDTHWLVNAGYHINCAPHFEGLYTSNELPHFIANMEYGFPGNPELGRILAEGCNALGVETLAHDATTLGPEYGTLVPMRYMNQDRHFKVVSVSALCTVHYLNDSARLGWAMRKAVEEHYDGTVAFLASGSLSHRFAQNGQAPDFSDRIWSPFLEVLDHEVVQMWQEGRWAEFCGMLPEYASKGHGEGFMHDTAMLLGALGWSAYDGKAEVVTPYFGSSGTGQINAVFPVTAQDGSAIPAAQAGNPAGASCASRL
notes: N-terminus MGKVA from primer
Km: 58 ± 8 µM
kcat: 63.5 s⁻¹
kcat/Km: 1.1e+06 M⁻¹ s⁻¹
